B1: library; numbered along this chain (parent)
chain: MAAAAAAAAEQQSSNGPVKKSMREKAVERRSVNKEHNSNFKAGYIPIDEDRLHKTGLRGRKGNLAICVIILLFILAVINLIITLVIWAVIRIGPNGCDSMEFHESGLLRFKQVSDMGVIHPLYKSTVGGRRNENLVITGNNQPIVFQQGTTKLSVENNKTSITSDIGMQFFDPRTQNILFSTDYETHEFHLPSGVKSLNVQKASTERITSNATSDLNIKVDGRAIVRGNEGVFIMGKTIEFHMGGNMELKAENSIILNGSVMVSTTRLPSSSSGDQLGSGDWVRYKLCMCADGTLFKVQVTSQNMGCQISDNPCGNTH

Variants of: B1
Assay: SGCB cell-surface expression functional score (HA stain, bin4 vs bin1, normalised to synonymous) (log10 ratio); higher = more cell-surface SGCB (functional)
How it was run: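 The functional score is a log ratio of variant frequency in the highest versus the lowest intensity bin, expressed as a median over codons and duplicate transductions. Codon-saturation libraries of HA-tagged, YFP-fused human beta-sarcoglycan were transduced by lentivirus at MOI <0.1 into HEK293 cells stably expressing alpha-, gamma- and delta-sarcoglycan, and the cells were stained on ice with Alexa Fluor 647 anti-HA, fixed and sorted into four 5% intensity bins before amplicon sequencing. Synonymous variants were scaled to mean 0, SD 0.5 within each section.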

SGCB cell-surface expression functional score (log10), by site and new letter:
T266: Q 1.04, G 1.23, V 0.35, N 0.54, E 1.22, Y 0.19, K 1.15, W 0.59, S 0.4, H 0.55, C 1.12, L 0.47, P 0.54, R 0.23, A 0.63, D 0.4, F 0.7, I 0.26, M 1.39
S260: V 0.01, F 0.4, K -0.81, H 0.83, N 0.25, G 0.77, D -0.04, L -0.22, E -0.09, I -0.71, W 0.61, P 0.71, Y -0.87, M 0.98, C 0.5, Q -0.24, T 0.41, A 0.52, R 0.87
L268: I 0.38, N 0, S 0.48, F 0.46, A 0.63, D 0.78, R 0.02, G -0.22, C -0.57, H 0, E -0.13, M 0.61, Q -0.01, P -0.02, K -1.12
T265: H 0.75, R 0.4, C -0.3, A 0, K 0.32, D 0, Q 0.21, M 1.41, E 0.2, F 0.68, W 0.38, G 0.47, V 0.52, S 0.4, Y 0.55, P 0.25, L 0.73, I 0.58, N 0.79
R267: C 0.16, Q -0.244, L -0.05, K 0.76, P -0.19, S 0.28, T -0.49, A 0.63, G 0.49, Y 0.2, D -0.54, I -0.11, N 0, W -0.83, F 0.59, M -0.73, H 0.05, E -0.053, V 0.49
V261: W 0.306, E 0.05, H -1.2, C 0.48, R -0.69, N -0.63, K -1.55, M -0.12, A -0.02, F -1.31, T 0.23, D 0.41, S -0.04, L 0.42, P -0.15, Y -1.15, I 0.29, Q -1.12, G -0.18
M262: G 0.53, L 0.57, D -0.81, S 0.7, I -0.11, R 0.7, C 0.37, H 1.32, P -0.34, F 0.95, V 0.78, A 0.37, Q 0.93, W 0.08, E 0.65, N 0, Y 0.79, T 0.19, K 0.79
S264: Q 0.39, G 0.23, I 0.34, V 0.6, A 0.51, Y 0.34, M 0.69, R 0.03, L 0.68, H 0.22, P 0.06, K 0.5, F 0.58, W -0.2, T 0.31, D 0.96, E 0.53, C -0.1, N -0.3
V263: T 0.4, F 0.35, C 1, D -0.53, W 0.52, A -0.4, Y 0.3, H 0.31, S -0.39, M -1.03, E -0.52, G -0.03, L 0.09, P -1.18, R -0.48, Q -1.36, K -0.87, I 0.77, N 0.66

From the supplement of paper PMC10266784
